Measurements as given in US20260028391A1.
pKd: −log10 of the molar value. Read-outs that look alike come from different tables or passages of the source.

Legend:
[1] = target: fusion glycoprotein (F) of the MPV used in the neutralization of Table 34 (metapneumovirus); assay: cell-based or functional assay
[2] = target: RSV fusion glycoprotein (RSV-F) of the RSV used in the neutralization of Table 33 (respiratory syncytial virus, strain not stated); assay: cell-based or functional assay
RSV-B F (RSV B) [3] = assay: BLI
RSV-A F (RSV A) [4] = assay: BLI
RSV F B N201S (RSV B) = assay: FACS, % binding to RSV F B variants
RSV F B, B Ref (RSV B) = assay: FACS, % binding to RSV F B variants
RSV F B N208S (RSV B) = assay: FACS, % binding to RSV F B variants
RSV F B N208D (RSV B) = assay: FACS, % binding to RSV F B variants
[5] = target: RSV F B K68N-N201S (RSV B); assay: FACS, % binding to RSV F B variants
RSV F B S443P (RSV B) = assay: FACS, % binding to RSV F B variants
[6] = target: RSV F B K68N-N208S (RSV B); assay: FACS, % binding to RSV F B variants
[7] = target: RSV B (screening GFP strain) fusion glycoprotein (F) (RSV B); assay: cell-based or functional assay
[8] = target: RSV A1998/3-2 fusion glycoprotein (F) (RSV A, strain A1998/3-2); assay: cell-based or functional assay
[9] = target: RSV A2 BPR-344-00 (BEI NR-12149) fusion glycoprotein (F) (RSV A, strain A2) (UniProt P03420); assay: cell-based or functional assay
[10] = target: RSV A 2000/3-4 fusion glycoprotein (F) (RSV A, strain A 2000/3-4); assay: cell-based or functional assay
[11] = target: RSV A 2001/3-12 fusion glycoprotein (F) (RSV A, strain A 2001/3-12); assay: cell-based or functional assay
[12] = target: RSV A2 VR 1540 fusion glycoprotein (F) (RSV A, strain A2 (VR 1540)) (UniProt P03420); assay: cell-based or functional assay
[13] = target: RSV A2 (screening GFP strain) fusion glycoprotein (F) (RSV A); assay: cell-based or functional assay
[14] = target: RSV Ds Red 5 fusion glycoprotein (F) (RSV, strain printed as Ds Red 5); assay: cell-based or functional assay
[15] = target: RSV A1997/12-35 fusion glycoprotein (F) (RSV A, strain A1997/12-35); assay: cell-based or functional assay
[16] = target: RSV B 9719/09 fusion glycoprotein (F) (RSV B, strain 9719/09); assay: cell-based or functional assay
[17] = target: RSV B1 BPR-348-00 (BEI NR-4052) fusion glycoprotein (F) (RSV B, strain B1) (UniProt O36634); assay: cell-based or functional assay
[18] = target: fusion glycoprotein (F) of MPV A GFP (Tables 41 and 43) (metapneumovirus A); assay: cell-based or functional assay
[19] = target: RSV-B B9320 F protein (RSV B, strain B9320); assay: cell-based or functional assay
[20] = target: RSV-long strain fusion glycoprotein (F) (RSV, long strain) (UniProt P12568); assay: cell-based or functional assay
[21] = target: RSV A2 BPR-344-00 (BEI NR-12149) fusion glycoprotein (F) (RSV A, strain A2) (UniProt P03420); assay: cell-based or functional assay; remark: listed apart in the source
[22] = target: fusion glycoprotein (F) of RSV B GFP (Tables 41 and 42) (respiratory syncytial virus B); assay: cell-based or functional assay
[23] = target: RSV A Randall fusion glycoprotein (F) (RSV A, strain Randall); assay: cell-based or functional assay
[24] = target: fusion glycoprotein (F) of RSV A GFP (Tables 41 and 42) (respiratory syncytial virus A); assay: cell-based or functional assay
[25] = target: RSV A fusion glycoprotein (F), virus of the neutralisation assays of Tables 54 and 57 (RSV A); assay: cell-based or functional assay
[26] = target: RSV-B B18537/62 F protein (RSV B, strain B18537/62) (UniProt P13843); assay: cell-based or functional assay
[27] = target: RSV F A N208Y-N671I (RSV A, strain A2) (UniProt P03420); assay: FACS, % binding to RSV F A variants
[28] = target: RSV F A, A2 Ref (RSV A, strain A2) (UniProt P03420); assay: FACS, % binding to RSV F A variants
[29] = target: RSV F A G446E (RSV A, strain A2) (UniProt P03420); assay: FACS, % binding to RSV F A variants
[30] = target: RSV F A S433P (RSV A, strain A2) (UniProt P03420); assay: FACS, % binding to RSV F A variants
[31] = target: RSV F A S443P-K445N (RSV A, strain A2) (UniProt P03420); assay: FACS, % binding to RSV F A variants
[32] = target: RSV F A S433P-G446E (RSV A, strain A2) (UniProt P03420); assay: FACS, % binding to RSV F A variants
[33] = target: RSV F A L203I (RSV A, strain A2) (UniProt P03420); assay: FACS, % binding to RSV F A variants
[34] = target: biot-RSV-F wt (respiratory syncytial virus (RSV)); assay: BLI (Octet), biotinylated F on SA sensors, mAb 5 µg/ml
RSV-B F (RSV B) [35] = assay: affinity; method not given
RSV-A F (RSV A) [36] = assay: affinity; method not given
[37] = target: RSV fusion glycoprotein (RSV-F), pre-fusion conformation, recombinant protein loaded on sensors (respiratory syncytial virus (RSV), strain not stated); assay: ELISA-type titration, OD 405 nm, on Pre-F
[38] = target: fusion glycoprotein of Human metapneumovirus-TN/96-213 (BEI NR-22243) (human metapneumovirus TN/96-213); assay: cell-based or functional assay
[39] = target: fusion glycoprotein of RSV B1 BPR-348-00 (BEI NR-4052) (respiratory syncytial virus B1) (UniProt O36634); assay: cell-based or functional assay
[40] = target: fusion glycoprotein of RSV A2 BPR-344-00 (BEI NR-12149) (respiratory syncytial virus A2) (UniProt P03420); assay: cell-based or functional assay
[41] = target: fusion glycoprotein (F) of RSV A/A2/61 (respiratory syncytial virus A/A2/61) (UniProt P03420); assay: cell-based or functional assay
[42] = target: fusion glycoprotein of the MPV D280 used in the neutralization assay of Example 3 (metapneumovirus (strain not stated)); assay: cell-based or functional assay
[43] = target: fusion glycoprotein of Human Metapneumovirus-GFP CAN97-83 (Vira Tree M121) (human metapneumovirus CAN97-83) (UniProt Q6WB98); assay: cell-based or functional assay
[44] = target: RSV fusion glycoprotein (RSV-F) of RSV-A (A2) (respiratory syncytial virus A, strain A2) (UniProt P03420); assay: cell-based or functional assay
[45] = target: MPV fusion glycoprotein (MPV-F) of MPV-A2 (CAN97-83) (human metapneumovirus, strain CAN97-83) (UniProt Q6WB98); assay: cell-based or functional assay
[46] = target: MPV fusion glycoprotein (MPV-F) of MPV-B2 (TN/96-213) (human metapneumovirus, strain TN/96-213); assay: cell-based or functional assay
[47] = target: RSV fusion glycoprotein (RSV-F) of RSV-B (B1) (respiratory syncytial virus B, strain B1) (UniProt O36634); assay: cell-based or functional assay
[48] = target: fusion glycoprotein (F) of RSV B/9727 (respiratory syncytial virus B/9727); assay: cell-based or functional assay
[49] = target: fusion glycoprotein of the RSV used in the neutralization assay of Example 1 (respiratory syncytial virus (strain not stated)); assay: cell-based or functional assay
[50] = target: RSV fusion glycoprotein (RSV-F) (respiratory syncytial virus (strain not stated)); assay: SPR; sensors loaded with F protein, mAb in solution
[51] = target: RSV fusion glycoprotein (RSV-F) (respiratory syncytial virus); assay: SPR; F protein loaded on streptavidin sensors, mAb in solution
[52] = target: MPV fusion glycoprotein with the D280N mutation (MPV-F N280) (metapneumovirus); assay: as above
[53] = target: MPV fusion glycoprotein without the D280N mutation (MPV-F D280) (metapneumovirus); assay: as above

Sequence of MPE8 (antibody) (VH): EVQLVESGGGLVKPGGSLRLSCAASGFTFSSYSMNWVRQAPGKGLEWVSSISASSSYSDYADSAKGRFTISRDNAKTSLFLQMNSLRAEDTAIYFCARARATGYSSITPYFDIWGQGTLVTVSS
Sequence of MPE8 (antibody) (VL): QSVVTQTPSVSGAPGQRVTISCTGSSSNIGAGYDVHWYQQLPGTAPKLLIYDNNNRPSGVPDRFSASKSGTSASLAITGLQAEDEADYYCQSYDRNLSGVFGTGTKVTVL

Substance: palivizumab-rIgG1 (antibody)
- IC50 (ng/mL) in neutralization against MPV [1]: > 2000 ng/mL
- IC50 (ng/mL) in neutralization against RSV [2]: 55.2 ng/mL

Substance: MEDI8897-rIgG1-YTE (antibody)
- pKd (RSV-B F (RSV B) [3]): 9.66
- pKd (RSV-A F (RSV A) [4]): 10.46
- % binding (RSV F B N201S (RSV B)): 27.3%
- % binding (RSV F B, B Ref (RSV B)): 57.3%
- % binding (RSV F B N208S (RSV B)): 0.035%
- % binding (RSV F B N208D (RSV B)): 0.026%
- % binding [5]: 0.056%
- % binding (RSV F B S443P (RSV B)): 38.5%
- % binding [6]: 0.031%
- IC50, virus neutralization [7]: 1.14 ng/mL
- IC50, virus neutralization [8]: 0.9 ng/mL
- IC50, virus neutralization [9]: 1.01 ng/mL
- IC50, virus neutralization [10]: 0.57 ng/mL
- IC50, virus neutralization [11]: 0.63 ng/mL
- IC50, virus neutralization [12]: 1.14 ng/mL
- IC50, virus neutralization [13]: 1.02 ng/mL
- IC50, virus neutralization [14]: 0.48 ng/mL
- IC50, virus neutralization [15]: 0.76 ng/mL
- IC50, virus neutralization [16]: 1.25 ng/mL
- EC50, virus neutralization (Fab testing) [17]: 0.0088 nM
- IC50, virus neutralization [17]: 0.4 ng/mL
- IC50 (ng/ml), MPV A GFP neutralization [18]: > 2000 ng/mL
- EC50, virus neutralization (Fab testing) [19]: 0.0102 nM
- EC50, virus neutralization (Fab testing) [20]: 0.0069 nM
- IC50, virus neutralization [21]: 0.2 ng/mL
- IC50 (ng/ml), RSV B GFP neutralization [22]: 0.419 ng/mL
- IC50, virus neutralization [23]: 2.42 ng/mL
- IC50 (ng/ml), RSV A GFP neutralization [24]: 0.483 ng/mL
- IC50, neutralization of RSVA [25]: 7.74 ng/mL
- EC50, virus neutralization (Fab testing) [26]: 0.011 nM
- % binding [27]: 0.049%
- % binding [28]: 60.2%
- % binding [29]: 28.5%
- % binding [30]: 35.3%
- % binding [31]: 34.5%
- % binding [32]: 35.8%
- % binding [33]: 0.04%
- pKd [34]: 10.40
- pKd (RSV-B F (RSV B) [35]): 8.91
- pKd (RSV-A F (RSV A) [36]): 12.00

Substance: Palivizumab (antibody)
- IC50, virus neutralization [16]: 78.6 ng/mL
- IC50, virus neutralization [23]: 122 ng/mL

Substance: MPE8 (antibody)
- EC50 (read off the curve) [37]: 30 ng/mL
- IC50 (ng/mL) in neutralization against MPV [1]: 11 ng/mL
- IC50 (ng/mL) in neutralization against RSV [2]: 12.2 ng/mL
- RSV and MPV Neutralization (IC50 ng/ml) [38]: 23.6 ng/mL
- RSV IC50 (ng/ml), neutralization of B/9320 [19]: 3.2 ng/mL
- RSV and MPV Neutralization (IC50 ng/ml) [39]: 3.71 ng/mL
- RSV and MPV Neutralization (IC50 ng/ml) [40]: 6.01 ng/mL
- RSV IC50 (ng/ml), neutralization of A/Randall [23]: 22 ng/mL
- RSV IC50 (ng/ml), neutralization of A/A2 [41]: 126 ng/mL
- MPV D280 Neutralization - IC50 [42]: 6.9 ng/mL
- RSV and MPV Neutralization (IC50 ng/ml) [43]: 12.6 ng/mL
- Neutralization (IC50, ng/ml) [44]: 6 ng/mL
- Neutralization (IC50, ng/ml) [45]: 12.6 ng/mL
- Neutralization (IC50, ng/ml) [46]: 23.6 ng/mL
- Neutralization (IC50, ng/ml) [47]: 3.7 ng/mL
- RSV IC50 (ng/ml), neutralization of B/9727 [48]: 16.9 ng/mL
- RSV Neutralization - IC50 [49]: 15.3 ng/mL
- pKd [50]: 12.00
- pKd [51]: 12.00
- pKd [52]: 7.00
- pKd [53]: 8.60
